Measurements: publication PMC7101311 (Nature Communications, 2020)

T1: His6-tagged PCNA from Pyrococcus abyssi (Pyrococcus abyssi, UniProt Q9UYX8 1-249)
T1 construct: PCNA, Pyrococcus abyssi; open reading frame optimized and synthesized, in pET28-a(+) with a thrombin-cleavable N-terminal 6xHis tag; PCNA with its His tag kept, captured on the NTA chip for SPR; also called His-tagged PCNA; source: E. coli BL21-CodonPlus (DE3)-RIPL, purified (heat step, HisTrap, heparin, size exclusion); not shown: His6, N-terminal, kept
T1 sequence (looked up): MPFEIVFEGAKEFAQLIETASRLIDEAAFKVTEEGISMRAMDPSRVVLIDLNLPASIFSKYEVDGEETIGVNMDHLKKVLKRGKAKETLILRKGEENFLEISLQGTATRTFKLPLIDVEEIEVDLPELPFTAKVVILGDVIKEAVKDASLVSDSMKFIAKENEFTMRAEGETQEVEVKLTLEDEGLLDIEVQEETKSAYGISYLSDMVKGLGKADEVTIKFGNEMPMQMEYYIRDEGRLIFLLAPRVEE

B1: cPIP peptide (12 amino-acid peptide mimicking the DP2 C-terminal PIP-box) (peptide)
peptide: KKRVISLEEFFS
notes: C-terminal PIP-box (cPIP) of PolD DP2, Pyrococcus abyssi; limits worked out from the printed residues V1258, I1259, L1261, F1264; also called canonical PIP-box; source: synthetic peptide (Smart Bioscience)
B2: PCNA (proliferative cell nuclear antigen) from Pyrococcus abyssi (natural protein, UniProt Q9UYX8 1-249, looked up)
chain: T1 sequence (looked up)
notes: PCNA, Pyrococcus abyssi; open reading frame optimized and synthesized, in pET28-a(+) with a thrombin-cleavable N-terminal 6xHis tag; PCNA as used in cryo-EM, crystallisation, BLI (analyte) and primer extension; also called sliding clamp; source: E. coli BL21-CodonPlus (DE3)-RIPL, purified (heat step, HisTrap, heparin, size exclusion)
B3: primer-template duplex (18-mer primer / 25-mer template) (dsDNA)
DNA 1: CGCCGGGCCGAGCCGTGC
DNA 2: AGGTCGTGCACGGCTCGGCCCGGCG
B4: MBP–iPIP-cPIP fusion (DP2:1196–1270) (domain or fragment, Pyrococcus abyssi, UniProt Q9V2F4 1381-1455, looked up)
chain: ETQLTLIVNPNDICQRLVMARTGEVNKSGLLENLSNGSKKTEKAEKAEKPRKKSDEKPKKKRVISLEEFFSRKSK
notes: C-terminal region of PolD DP2, Pyrococcus abyssi, residues 1196-1270, holding iPIP and cPIP; pIVEX His-MBP-TEV plasmid; TEV-cleavable N-terminal His6-MBP tag, kept for capture on Ni-NTA biosensors; also called His-MBP-fused DP2 construct; source: E. coli BL21-CodonPlus (DE3)-RIPL, purified (HisTrap, heparin, size exclusion; no heat step); not shown: His6, N-terminal, kept; MBP, N-terminal, kept

Legend:
[1] = biological target: primase (Saccharomyces cerevisiae) (UniProt P10363); conditions: cited from earlier work
[2] = biological target: T1, His6-tagged PCNA from Pyrococcus abyssi; assay: SPR; Biacore T200; ~2000 RU His-tagged PCNA and PriS-PriL(1–210) on an NTA chip, His-tagged MBP as reference; cPIP peptide 0-200 µM, 30 s at 30 µL/min, 25 °C, buffer E with 100 µM EDTA; steady-state fit; conditions: both partners purified
[3] = biological target: the molecule itself; assay: cryo-EM structure; 0.4 µM PolD (DP1 H451A), 1.2 µM PCNA, 0.7 µM primed DNA duplex (18-mer primer, 7-nt overhang), 0.1 mM dAMPCPP, buffer F (20 mM Na-Hepes pH 8, 0.01 mM NaCl, 2 mM Mg-acetate), 20 min at 4 °C; single-particle cryo-EM, 3.77 Å
[4] = biological target: PolD DP1 (small subunit, exonuclease-deficient);PolD DP2 (large catalytic subunit);PCNA (Pyrococcus abyssi;Pyrococcus …, UniProt Q9V2F3;PDB:6T8H_3;Q9UYX8 1-619;1-1275;1-249, H451A||); assay: cryo-EM structure (3.77 A); 2 mM Mg-acetate, 0.1 mM dAMPCPP (incoming nucleotide not seen in the map); Cryo-EM sample: 0.4 uM PolD, 1.2 uM PCNA, 0.7 uM DNA, 20 mM Na-HEPES pH 8, 0.01 mM NaCl (so in the source), 2 mM Mg-acetate, 0.1 mM dAMPCPP, 20 min at 4 C; conditions: protein: recombinant;recombinant;recombinant; copies: 1;1;3; 5' overhang 7 nt on template strand (18 bp duplex)
[5] = biological target: B2; assay: BLI; Octet RED384; His-MBP-fused DP2 constructs captured on Ni-NTA biosensors (1.5 nm); PCNA or PriS-PriL(1–210) 31.25-2000 nM, 300 s, 25 °C, buffer E (20 mM Na-Hepes pH 8, 0.15 M NaCl) with 0.2 mg/mL BSA; steady-state fit; conditions: both partners purified

Sequence of primase (Saccharomyces cerevisiae) (P10363 whole entry, chain 1 of 2): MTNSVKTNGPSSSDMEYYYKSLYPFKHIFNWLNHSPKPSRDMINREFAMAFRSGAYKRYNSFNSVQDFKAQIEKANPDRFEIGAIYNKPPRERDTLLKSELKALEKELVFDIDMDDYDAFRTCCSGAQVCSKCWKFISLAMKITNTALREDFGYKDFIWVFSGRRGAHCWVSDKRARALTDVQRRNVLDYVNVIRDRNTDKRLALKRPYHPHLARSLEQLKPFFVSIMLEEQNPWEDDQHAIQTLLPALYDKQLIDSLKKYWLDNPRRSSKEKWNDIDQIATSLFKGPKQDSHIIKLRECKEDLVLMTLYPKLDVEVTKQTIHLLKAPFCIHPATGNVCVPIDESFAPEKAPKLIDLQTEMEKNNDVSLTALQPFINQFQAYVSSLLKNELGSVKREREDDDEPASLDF
Sequence of primase (Saccharomyces cerevisiae) (P20457 whole entry, chain 2 of 2, further chain): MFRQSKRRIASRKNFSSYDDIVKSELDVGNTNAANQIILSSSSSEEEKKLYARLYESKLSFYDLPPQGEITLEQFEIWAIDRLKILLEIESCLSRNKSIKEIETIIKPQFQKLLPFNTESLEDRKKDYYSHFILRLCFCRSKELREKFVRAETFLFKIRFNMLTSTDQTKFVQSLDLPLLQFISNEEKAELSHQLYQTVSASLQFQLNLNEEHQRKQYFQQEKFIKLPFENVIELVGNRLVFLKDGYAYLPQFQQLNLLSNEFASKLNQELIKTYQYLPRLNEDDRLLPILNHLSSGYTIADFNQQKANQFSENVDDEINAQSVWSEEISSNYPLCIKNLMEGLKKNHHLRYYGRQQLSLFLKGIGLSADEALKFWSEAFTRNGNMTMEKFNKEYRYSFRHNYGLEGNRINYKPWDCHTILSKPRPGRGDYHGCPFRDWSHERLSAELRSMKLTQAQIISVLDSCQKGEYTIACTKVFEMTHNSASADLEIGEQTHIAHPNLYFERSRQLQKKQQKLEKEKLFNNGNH
Sequence of PolD DP1 (small subunit, exonuclease-deficient);PolD DP2 (large catalytic subunit);PCNA (Q9V2F3 whole entry H451A, the tested form may be a part, one chain of several): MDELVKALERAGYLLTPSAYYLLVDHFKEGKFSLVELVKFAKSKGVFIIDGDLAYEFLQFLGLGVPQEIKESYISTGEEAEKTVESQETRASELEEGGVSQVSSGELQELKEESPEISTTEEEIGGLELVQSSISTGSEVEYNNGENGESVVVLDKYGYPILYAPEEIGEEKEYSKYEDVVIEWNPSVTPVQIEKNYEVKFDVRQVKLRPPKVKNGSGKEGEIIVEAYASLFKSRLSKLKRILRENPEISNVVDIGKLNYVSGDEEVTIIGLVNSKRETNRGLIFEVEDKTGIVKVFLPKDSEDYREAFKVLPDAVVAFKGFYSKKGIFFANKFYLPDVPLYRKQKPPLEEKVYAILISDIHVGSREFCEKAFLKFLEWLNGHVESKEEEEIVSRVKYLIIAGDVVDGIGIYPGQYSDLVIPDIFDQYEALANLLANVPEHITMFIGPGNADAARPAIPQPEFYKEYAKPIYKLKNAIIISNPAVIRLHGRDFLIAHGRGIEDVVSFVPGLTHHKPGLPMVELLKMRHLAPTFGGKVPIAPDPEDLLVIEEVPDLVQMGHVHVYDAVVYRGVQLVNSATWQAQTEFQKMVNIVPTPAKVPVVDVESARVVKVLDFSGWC

Molecule: DNA polymerase alpha C-terminus (from UniProt P13382)
Kd [1]: 245 nM

Molecule: B1
Kd [2]: 49 ± 4 µM

Molecule: B2
stoichiometry N [3]: 3

Molecule: B3
binding result [4]: binds

Molecule: B4
Kd [5]: 472 ± 120 nM
